We go through three molecules from US20260201020A1, “METHODS FOR EXPRESSION OF FUSION-FREE BOVINE ULTRALONG CDR3 SCAFFOLD” (priority 2022, published 2026).

Series [1] addresses SARS-CoV-2-Spike receptor binding domain protein (RBD) (Severe acute respiratory syndrome coronavirus 2, UniProt P0DTC2).
Series [2] addresses spike RBD (Severe acute respiratory syndrome coronavirus 2, UniProt P0DTC2).
Series [3] is described as follows: Capillary isoelectric focusing (cIEF), isoelectric point. The series is classed as physicochemical. The conditions noted are these: non-reduced; mature knob expression, 2 L scale. As to the method:
Capillary isoelectric focusing (cIEF): 2 mg/mL knob protein samples were diluted 2-fold by combining 30 microliter of sample with 30 μL of Milli-Q water. 20 μL of the diluted sample was added to 180 μL of Master Mix comprised of: 35% of 1% Methyl cellulose, 10 mM of 0.5M Arginine, 10 mM of 0.25M Iminodiacetic acid, 4% of pI 3-10 Pharmalyte solution, 1% of pI 4.05 marker, 1% of pI 9.5 marker, 2M of 8M Urea, and Milli-Q water. The total amount of 200 μL was then aliquoted into the sample plate for iCIEF analysis. Separation of the analyte occurs in the Maurice capillary cIEF cartridge (Bio-techne PN: PS-MC02-C) set to 55 seconds of sample load, and 1 min at 1500 V then 15 min at 3000 V. Both absorbance and fluorescence detection settings were enabled. Absorbance exposure time was set to 0.005 seconds, while fluorescence exposure times were set to 3, 5, 10, 20 and 40 seconds. Data processing was performed by Compass for iCE software (Version: 2.1.0, Build ID: 0226) from Bio-techne.

The target of series [4] is SARS-CoV-2 Spike RBD (SARS-CoV-2), P0DTC2.
The target is the same in series [5]. This is another data set of the same source.
Series [6] shares this target. This is another data set of the same source.
The target is the same in series [7]. The source holds these as a separate data set.
Series [8] has the same target. The source holds these as a separate data set.
Series [9] has the same target. This is another data set of the same source.
The target is the same in series [10]. This is another data set of the same source.
Series [11] shares this target. The source holds these as a separate data set.
For series [12] the target is unchanged. The source holds these as a separate data set.
Series [13] shares this target. This is another data set of the same source.
Series [14] has the same target. This is another data set of the same source.
The target is the same in series [15]. The source holds these as a separate data set.
The target is the same in series [16]. This is another data set of the same source.
For series [17] the target is unchanged. The source holds these as a separate data set.
Series [18] shares this target. This is another data set of the same source.
Series [19] has the same target. This is another data set of the same source.
The target is the same in series [20]. The source holds these as a separate data set.
Series [21] has the same target. The source holds these as a separate data set.
For series [22] the target is unchanged. This is another data set of the same source.
The target is the same in series [23]. This is another data set of the same source.
Series [24] shares this target. This is another data set of the same source.
Series [25] has the same target. This is another data set of the same source.
The target is the same in series [26]. The source holds these as a separate data set.
Series [27] has the same target. The source holds these as a separate data set.
Series [28] shares this target. The source holds these as a separate data set.
Series [29] has the same target. The source holds these as a separate data set.

Values joined by “and” are separate entries in the source; they are usually repeats but may differ in a detail not shown here. Equal values may be shown once. Read-outs that look alike come from different tables or passages of the source.

Consider “R2G3-mini (GSTCPDGYEHTCGCIGGCGCKRSACIGALCCQASLGGWLS)”, for which, in series [1], the “Amino Acid Sequence of Binding Epitopes to Spike RBD Protein as determined by HDX Analysis: Major Epitope” value is 154-192 (Major and 154-194 (Major; the “RBD amino acid sequence with maximum protection against deuterium uptake” value is on record as 158-184. For the same molecule, the “binding activity to spike RBD” value in series [2] is “maintain binding activity”. Further, the “Isoelectric Point (pI) Determination by iCEF” value in series [3] was 7.37 (non-reduced).

Consider “R2F12-mini (GGSNACPDDFDYRCSCIGGCGCARKGCVGPLCCRSDLGGYLTDSPA)”, for which, in [1], the “Amino Acid Sequence of Binding Epitopes to Spike RBD Protein as determined by HDX Analysis: Major Epitope” value was 154-194 (Major and 154-192 (Major. Further, the “binding activity to spike RBD” value in [2] is recorded as “maintain binding activity”. Besides, in [3], the “Isoelectric Point (pI) Determination by iCEF” value was 5.15 (non-reduced).

B1: R2F12-His (peptide)
chain: GGGGAMGSKTKNACPDDFDYRCSCIGGCGCARKGCVGPLCCRSDLGGYLTDSPAYIYLGGGGSGGGGSHHHHHH
modifications: not checked
For the molecule B1, the Adjusted Binding Rate in [4] was found to be 9.3 nm/s; in series [5] it was 0.8 nm/s; in series [6] it was 1.33 nm/s; in series [7], 1.67 nm/s; in series [8], 0.8 nm/s; in [9] it was 4.69 nm/s. For the same molecule, the Adjusted Binding Rate in series [10] was 9.6 nm/s; in series [11], 2.76 nm/s; in series [12] it was 2.69 nm/s; in [13], 2.68 nm/s; in series [14], 0.5 nm/s; in series [15], 2.11 nm/s. Besides, the Adjusted Binding Rate was determined as 4.7 nm/s in [16]; 3.86 nm/s in series [17]; 1.3 nm/s in [18]; 3.32 nm/s in series [19]; 3.54 nm/s in series [20]; 0.4 nm/s in [21]. In addition, the Adjusted Binding Rate in [22] was determined as 3.6 nm/s; in series [23], 5.37 nm/s; in [24], 1.62 nm/s; in [25] it was 2.38 nm/s; in series [26], 14.9 nm/s; in [27], 2.46 nm/s. Further, the Adjusted Binding Rate in series [28] came to 3.61 nm/s; in series [29], 0.62 nm/s.
